Test results: PMC5356532

Assays:
[1] = molecular target: Pyruvate kinase M2 (PKM2), endogenous in NIH-3T3 cells (mouse (endogenous in NIH-3T3)) (UniProt P52480); assay: cross-linking
[2] = molecular target: Pyruvate kinase M2 (PKM2), endogenous in U251-iUS28 cells (human (endogenous in U251)) (UniProt P14618); assay: cross-linking

Chain of Pyruvate kinase M2 (PKM2), endogenous in U251-iUS28 cells, P14618 1-531 (enzyme; other documents disagree on this pair) (P14618 whole entry): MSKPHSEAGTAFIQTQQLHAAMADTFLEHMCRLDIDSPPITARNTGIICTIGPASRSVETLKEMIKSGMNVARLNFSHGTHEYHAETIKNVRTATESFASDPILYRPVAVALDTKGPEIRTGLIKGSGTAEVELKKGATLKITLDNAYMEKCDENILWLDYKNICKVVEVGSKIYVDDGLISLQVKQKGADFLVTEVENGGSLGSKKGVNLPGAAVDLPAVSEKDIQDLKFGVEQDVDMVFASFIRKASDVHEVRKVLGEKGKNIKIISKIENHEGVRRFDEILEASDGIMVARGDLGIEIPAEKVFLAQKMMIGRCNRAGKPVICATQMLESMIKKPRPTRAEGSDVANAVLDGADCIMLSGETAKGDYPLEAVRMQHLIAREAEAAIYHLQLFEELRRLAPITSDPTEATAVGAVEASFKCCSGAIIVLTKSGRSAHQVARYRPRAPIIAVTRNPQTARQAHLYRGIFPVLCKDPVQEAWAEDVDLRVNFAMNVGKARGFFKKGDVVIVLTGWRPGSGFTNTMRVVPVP
Chain of Pyruvate kinase M2 (PKM2), endogenous in NIH-3T3 cells, P52480 1-531 (enzyme; other documents disagree on this pair) (P52480 whole entry): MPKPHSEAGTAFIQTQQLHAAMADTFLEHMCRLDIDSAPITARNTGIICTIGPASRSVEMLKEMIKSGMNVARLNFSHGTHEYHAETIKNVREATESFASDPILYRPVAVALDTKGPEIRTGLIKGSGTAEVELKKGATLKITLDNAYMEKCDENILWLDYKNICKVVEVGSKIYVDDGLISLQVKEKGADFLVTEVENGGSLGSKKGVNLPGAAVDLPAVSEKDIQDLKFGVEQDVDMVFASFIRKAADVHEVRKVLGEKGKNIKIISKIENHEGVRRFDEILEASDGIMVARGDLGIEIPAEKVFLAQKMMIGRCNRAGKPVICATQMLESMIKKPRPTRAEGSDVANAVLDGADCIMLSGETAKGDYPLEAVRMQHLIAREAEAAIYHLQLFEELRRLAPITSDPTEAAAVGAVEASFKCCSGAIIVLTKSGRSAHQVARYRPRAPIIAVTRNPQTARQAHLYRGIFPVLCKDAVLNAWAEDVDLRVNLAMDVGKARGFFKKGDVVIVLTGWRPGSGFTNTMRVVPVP

| Substance | stoichiometry N [1] | stoichiometry N [2] |
| --- | --- | --- |
| Pyruvate kinase M2 (PKM2), endogenous in NIH-3T3 cells, P52480 1-531 (enzyme; other documents disagree on this pair) | 2 | – |
| Pyruvate kinase M2 (PKM2), endogenous in U251-iUS28 cells, P14618 1-531 (enzyme; other documents disagree on this pair) | – | 2 |
